# Laboratory results taken from article PMC10213502, “ICA69 regulates activity-dependent synaptic strengthening and learning and memory” (Frontiers in Molecular Neuroscience, 2023).
# Biological target: T1, GFP-tagged PICK1 (UniProt Q9EP80 1-416)
# T1 construct: construct as previously described (Cao et al., 2007); also called GFP-PICK1; source: HEK293T, transfected, in lysate
# Assay: co-IP; HEK cells co-transfected with the GFP-tagged bait and both myc-tagged proteins; IP with GFP antibody (normal rabbit serum as control), myc blot; IP signals normalised to input; lysis buffer 1% NP-40, 200 mM NaCl, 20 mM HEPES pH 7.4; 4°C
# Conditions: partners not purified
# T1 sequence (Q9EP80 whole entry): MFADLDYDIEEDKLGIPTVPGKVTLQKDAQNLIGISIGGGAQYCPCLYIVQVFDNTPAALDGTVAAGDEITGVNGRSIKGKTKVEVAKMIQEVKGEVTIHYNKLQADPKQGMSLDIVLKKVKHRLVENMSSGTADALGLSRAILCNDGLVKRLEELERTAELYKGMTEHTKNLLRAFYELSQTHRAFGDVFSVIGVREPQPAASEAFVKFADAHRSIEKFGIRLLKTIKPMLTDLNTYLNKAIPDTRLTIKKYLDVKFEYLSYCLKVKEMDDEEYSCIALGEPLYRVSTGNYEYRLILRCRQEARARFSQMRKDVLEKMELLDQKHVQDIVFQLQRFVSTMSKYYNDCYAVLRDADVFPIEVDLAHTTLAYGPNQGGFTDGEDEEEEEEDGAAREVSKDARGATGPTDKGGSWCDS
binder,measurement,value
"myc-tagged ICA69 (full-length) (natural protein, UniProt Q63054 1-480, looked up, ICA69 (islet cell autoantigen of 69 kDa), myc-tagged full-length made by overlap extension PCR; The same protein as m1, with another tag; also called myc-ICA69; source: HEK293T, transfected, in lysate) MSGHKCYSWELQDRFAQDKSVVNKMQQKYWETKQAFIKATGKKEDEHVVASDADLDAKLELFHSIQRTCLDLSKAIVLYQKRICFLSQEENELGKFLRSQGFQDKTRAGKMMQATGKALCFSSQQRLALRNPLCRFHQEVETFRHRAISDTWLTVNRMEQCRTEYRGALLWMKDVSQELDPDLYKQMEKFRKVQTQVRLAKKNFDKLKMDVCQKVDLLGASRCNLLSHMLATYQTTLLHFWEKTSHTMAAIHESFKGYQPYEFTTLKSLQDPMKKLVEKEKKKSSRRENREAVAQEPRQLISLEEENQHKESSTCQKEEGKSVPSSVDKSSADDACSGPIDELLDVKPEEACLGPMAGTPEPESGDKDDLLLLNEIFSTSSLDEGEFSREWAAVFGDDRLKEPAPMGAQGEPDPKPQIGSAFLPSQLLDQNMKDLQASLQEPAKAASDLTAWFSLFADLDPLSNPDAIGKTDKEHELLNA",heteromer/homomer ratio (myc-ICA69 over myc-PICK1 in the IP of GFP-PICK1),19 ratio
